Data reported in the RNAGym collection of RNA variant scans (doi:10.7554/elife.80360).

B1: Hairpin Ribozyme (parent)
chain: GUCCUCUUUCACGUGCGCGUGAAAGAGAGAAGUGAACCAGAGAAACACACGUUGUGGUAUAUUACCUGGUA

Variants of: B1
Test: self-cleavage, relative activity (ratio to wild type); higher = more cleavage; co-transcriptional
Variant C12A G32A has a self-cleavage of 0.178.
C12A G32U gave a self-cleavage of 0.114.
C12A G34U gave a self-cleavage of 1.31.
C12A G40C showed a self-cleavage of 0.15.
Variant C12A G40U has a self-cleavage of 0.186.
With C12A G42C the self-cleavage was 0.272.
For C12A G42U, the self-cleavage was 0.301.
In the case of C12A G56A, the self-cleavage is reported as 0.182.
Work on C12A G68A yielded a self-cleavage of 0.262.
With C12A G68C the self-cleavage was 0.241.
For C12A G68U, the self-cleavage was 0.251.
With C12A U14A the self-cleavage was 0.611.
C12A U14C showed a self-cleavage of 0.71.
In the case of C12A U14G, the self-cleavage is reported as 0.566.
C12A U20A gave a self-cleavage of 0.865.
C12A U20C gave a self-cleavage of 0.919.
C12A U33C showed a self-cleavage of 0.166.
With C12A U55G the self-cleavage was 0.406.
C12A U58G showed a self-cleavage of 0.708.
C12A U62A gave a self-cleavage of 0.168.
Variant C12A U67A has a self-cleavage of 0.18.
C12A U67C gave a self-cleavage of 0.216.
With C12A U67G the self-cleavage was 0.215.
Work on C12G A22G yielded a self-cleavage of 0.739.
C12G A22U showed a self-cleavage of 0.686.
C12G A24U showed a self-cleavage of 0.669.
With C12G A26C the self-cleavage was 0.555.
In the case of C12G A26U, the self-cleavage is reported as 0.696.
For C12G A31C, the self-cleavage was 0.174.
C12G A35G showed a self-cleavage of 0.874.
C12G A36C gave a self-cleavage of 0.533.
Work on C12G A36G yielded a self-cleavage of 0.843.
Variant C12G A39C has a self-cleavage of 0.436.
For C12G A41C, the self-cleavage was 1.21.
With C12G A45G the self-cleavage was 0.0996.
In the case of C12G A47G, the self-cleavage is reported as 0.076.
In the case of C12G A47U, the self-cleavage is reported as 0.183.
C12G A49G gave a self-cleavage of 0.462.
Variant C12G A59G has a self-cleavage of 0.18.
In the case of C12G A61G, the self-cleavage is reported as 0.154.
C12G A61U gave a self-cleavage of 0.217.
With C12G A64G the self-cleavage was 0.466.
In the case of C12G A71C, the self-cleavage is reported as 1.3.
Work on C12G A71U yielded a self-cleavage of 0.655.
Work on C12G C16U yielded a self-cleavage of 0.812.
Work on C12G C18A yielded a self-cleavage of 0.926.
For C12G C18G, the self-cleavage was 0.727.
In the case of C12G C18U, the self-cleavage is reported as 0.889.
For C12G C37G, the self-cleavage was 0.294.
C12G C46U showed a self-cleavage of 0.191.
For C12G C48A, the self-cleavage was 0.128.
C12G C50U showed a self-cleavage of 0.291.
With C12G C65A the self-cleavage was 0.829.
With C12G C66G the self-cleavage was 0.26.
C12G C66U gave a self-cleavage of 0.369.
In the case of C12G G15C, the self-cleavage is reported as 0.756.
Variant C12G G15U has a self-cleavage of 0.906.
For C12G G17A, the self-cleavage was 0.913.
Variant C12G G21U has a self-cleavage of 0.663.
For C12G G25U, the self-cleavage was 0.472.
Variant C12G G29C has a self-cleavage of 0.13.
Work on C12G G29U yielded a self-cleavage of 0.234.
Variant C12G G32C has a self-cleavage of 0.0993.
C12G G34A showed a self-cleavage of 1.03.
For C12G G34U, the self-cleavage was 1.16.
For C12G G42C, the self-cleavage was 0.351.
For C12G G57U, the self-cleavage was 0.322.
In the case of C12G G68U, the self-cleavage is reported as 0.193.
With C12G U14A the self-cleavage was 0.629.
In the case of C12G U14G, the self-cleavage is reported as 0.684.
C12G U20A gave a self-cleavage of 0.795.
With C12G U33C the self-cleavage was 0.246.
Work on C12G U33G yielded a self-cleavage of 0.0897.
Variant C12G U52C has a self-cleavage of 0.899.
Variant C12G U53A has a self-cleavage of 0.911.
For C12G U53C, the self-cleavage was 0.919.
For C12G U53G, the self-cleavage was 0.562.
C12G U55A showed a self-cleavage of 0.25.
C12G U60G gave a self-cleavage of 0.452.
For C12G U63A, the self-cleavage was 0.194.
In the case of C12G U63G, the self-cleavage is reported as 0.204.
Variant C12G U70G has a self-cleavage of 0.615.
In the case of C12U A22C, the self-cleavage is reported as 0.831.
For C12U A31G, the self-cleavage was 0.549.
C12U A41C showed a self-cleavage of 0.886.
C12U A43C showed a self-cleavage of 0.105.
Work on C12U A45C yielded a self-cleavage of 0.201.
C12U A47C showed a self-cleavage of 0.221.
C12U A49G gave a self-cleavage of 0.564.
In the case of C12U A59C, the self-cleavage is reported as 0.149.
C12U A64C gave a self-cleavage of 0.148.
Work on C12U A71C yielded a self-cleavage of 1.31.
For C12U A71U, the self-cleavage was 0.656.
C12U C16A showed a self-cleavage of 0.735.
C12U C16G gave a self-cleavage of 0.78.
With C12U C18A the self-cleavage was 1.01.
For C12U C37U, the self-cleavage was 0.504.
C12U C38U showed a self-cleavage of 0.523.
Work on C12U C46A yielded a self-cleavage of 0.177.
Work on C12U C46G yielded a self-cleavage of 0.142.
With C12U C48G the self-cleavage was 0.185.
For C12U C50G, the self-cleavage was 0.231.
Variant C12U C66A has a self-cleavage of 0.179.
C12U G13A showed a self-cleavage of 0.72.
C12U G17A showed a self-cleavage of 0.91.
Work on C12U G17C yielded a self-cleavage of 0.578.
In the case of C12U G19C, the self-cleavage is reported as 0.955.
Variant C12U G21C has a self-cleavage of 0.651.
In the case of C12U G21U, the self-cleavage is reported as 0.672.
In the case of C12U G25C, the self-cleavage is reported as 0.511.
Work on C12U G25U yielded a self-cleavage of 0.52.
C12U G27A showed a self-cleavage of 0.328.
For C12U G29C, the self-cleavage was 0.133.
Work on C12U G29U yielded a self-cleavage of 0.0791.
Work on C12U G32C yielded a self-cleavage of 0.134.
For C12U G34A, the self-cleavage was 1.19.
C12U G34C showed a self-cleavage of 1.14.
Work on C12U G40A yielded a self-cleavage of 0.358.
C12U G40C showed a self-cleavage of 0.194.
C12U G51A gave a self-cleavage of 1.01.
Work on C12U G51C yielded a self-cleavage of 0.809.
With C12U G51U the self-cleavage was 0.872.
Work on C12U G54C yielded a self-cleavage of 0.47.
C12U G57A gave a self-cleavage of 0.215.
C12U G57U showed a self-cleavage of 0.262.
For C12U U14A, the self-cleavage was 0.73.
For C12U U14G, the self-cleavage was 0.602.
C12U U33C gave a self-cleavage of 0.187.
For C12U U58A, the self-cleavage was 0.597.
In the case of C12U U58G, the self-cleavage is reported as 0.584.
With C12U U62A the self-cleavage was 0.148.
Variant C12U U63C has a self-cleavage of 0.0427.
With C12U U67A the self-cleavage was 0.348.
C12U U67G gave a self-cleavage of 0.286.
For C12U U70C, the self-cleavage was 0.96.
In the case of G13A A22U, the self-cleavage is reported as 0.748.
G13A A23U gave a self-cleavage of 0.734.
G13A A24C showed a self-cleavage of 0.76.
G13A A24G gave a self-cleavage of 0.69.
Work on G13A A26C yielded a self-cleavage of 0.556.
Variant G13A A26G has a self-cleavage of 0.778.
G13A A26U gave a self-cleavage of 0.529.
Variant G13A A28G has a self-cleavage of 1.
Variant G13A A31U has a self-cleavage of 0.202.
Variant G13A A36C has a self-cleavage of 0.533.
Work on G13A A36G yielded a self-cleavage of 0.873.
G13A A39C showed a self-cleavage of 0.446.
With G13A A39U the self-cleavage was 0.32.
Variant G13A A43C has a self-cleavage of 0.119.
G13A A44C gave a self-cleavage of 0.195.
For G13A A44U, the self-cleavage was 0.133.
Work on G13A A45C yielded a self-cleavage of 0.135.
In the case of G13A A45U, the self-cleavage is reported as 0.0732.
Variant G13A A47C has a self-cleavage of 0.352.
G13A A47G gave a self-cleavage of 0.185.
G13A A49C gave a self-cleavage of 0.102.
For G13A A61C, the self-cleavage was 0.223.
Variant G13A A61G has a self-cleavage of 0.196.
Variant G13A A64G has a self-cleavage of 0.526.
Variant G13A C37G has a self-cleavage of 0.174.
For G13A C37U, the self-cleavage was 0.637.
In the case of G13A C38U, the self-cleavage is reported as 0.396.
With G13A C50G the self-cleavage was 0.316.
With G13A C65U the self-cleavage was 0.285.
For G13A C66G, the self-cleavage was 0.16.
G13A G17U showed a self-cleavage of 0.656.
With G13A G19A the self-cleavage was 0.806.
